{"source": "patent US20090010876A1", "about": "“VISFATIN AND USES THEREOF” (THE TRUSTEES OF COLUMBIA UNIVERSITY IN THE CITY OF NEW YORK, priority 2007, published 2009)", "molecules": {"B1": {"name": "visfatin: adipokine protein, having a molecular weight of about 52,000 daltons; polypeptide having SEQ ID NO:1 (protein, listed as Homo sapiens)", "chain": "MNPAAEAEFNILLATDSYKVTHYKQYPPNTSKVYSYFECREKKTENSKLRKVKYEETVFYGLQYILNKYLKGKVVTKEKIQEAKDVYKEHFQDDVFNEKGWNYILEKYDGHLPIEIKAVPEGFVIPRGNVLFTVENTDPECYWLTNWIETILVQSWYPITVATNSREQKKILAKYLLETSGNLDGLEYKLHDFGYRGVSSQETAGIGASAHLVNFKGTDTVAGLALIKKYYGTKDPVPGYSVPAAEHSTITAWGKDHEKDAFEHIVTQFSSVPVSVVSDSYDIYNACEKIWGEDLRHLIVSRSTQAPLIIRPDSGNPLDTVLKVLEILGKKFPVTENSKGYKLLPPYLRVIQGDGVDINTLQEVCVLY"}}, "key": {"[1]": {"tested_on": "ER stress related disease", "assay": "ER-stress related disease in susceptible mice", "format": "in vivo", "settings": "vs diluent alone; mice susceptible to an ER-stress related disease"}, "[2]": {"tested_on": "macrophages in mouse peritoneal cavity", "assay": "Acute UPR induction in mouse peritoneal macrophages in vivo, CHOP immunoblot", "parameters": "species or system Male C57/B6 mice", "settings": "i.v. 5 mg recombinant visfatin, 24 h later i.p. 25 μg tunicamycin, harvest 12 h after, CHOP normalized against phospho-eIf2α", "procedure": "FIG. 5. […] FIG. 5A. Male C57/B6 mice were subjected to intra-peritoneal (i.p.) injection of 1 ml of 4% thioglycolate to elicit peritoneal macrophages. Three days later, the mice were injected i.v. with 0.1 ml sterile saline ±5 mg recombinant visfatin (vis). Twenty-four hours later, these mice were injected i.p. with 0.5 ml 150 mM dextrose ±25 μg tunicamycin (TN). Twelve hours after TN injection, macrophages were harvested by peritoneal lavage and immediately lysed in RIPA buffer. The lysates were subjected to SDS-PAGE and immunoblotting for CHOP, phospho-eIf2α and β-actin. FIG. 5B. The intensity of CHOP bands were quantified and normalized against that of phospho-eIf2α."}, "ATF4 [3]": {"tested_on": "ATF4", "assay": "ATF4 mRNA by RT-QPCR in FC-loaded macrophages", "format": "cell-based", "settings": "visfatin 24 h pre-incubation, then acetyl-LDL + 58035 (FC); normalized with 36B4", "procedure": "(§1) FIG. 3. […] FIG. 3A. Macrophages were preincubated ±1100 ng/ml visfatin (v) for 24 h and then incubated with 50 μg/ml acetyl-LDL+10 μg/ml 58035 (FC) for indicated times. Total RNA was extracted and subjected to RT-QPCR. The mRNA level of ATF4 was normalized with a control gene 36B4. FIG. 3B. Macrophages were pre-incubated for 24 h±100 ng/ml visfatin (vis) and then incubated for 5 h+5 μg/ml tunicamycin (TN). The cells were pulsed with [35S]methionine/cysteine in methionine-free medium for 15 min and then lysed in RIPA buffer. ATF4 was immunoprecipitated using a rabbit antibody immobilized to protein A/G beads. A normal rabbit IgG served as control. The immunoprecipitate was subjected to SDS-PAGE and autoradiography."}, "[4]": {"tested_on": "unfolded protein response (UPR)", "assay": "Immunoblot of UPR markers in ER-stressed macrophages", "format": "cell-based", "settings": "for distal UPR effectors / distal UPR activation (CHOP, ATF3, XBP-1, ATF4): visfatin 24 h pre-incubation, then FC, 5 μM thapsigargin or 5 μg/ml tunicamycin 5 h, immunoblot", "procedure": "FIG. 2. […] FIG. 2A. Macrophages were preincubated 1100 ng/ml visfatin (vis) for 24 h and then incubated with FC, 5 μM thapsigargin (TG), or 5 μg/ml tunicamycin (TN) for 5 h. Whole cell lysates were immunoblotted for CHOP, ATF3, and β-actin. FIG. 2B. Macrophages were pre-incubated ±100 ng/ml visfatin for 24 h and then incubated with 5 μg/ml TN for 5 h. The nuclear extracts were immunoblotted for XBP-1, ATF4, and nucleophosmin (loading control). FIG. 2C. Nuclei-free cell extracts from the above experiment were immunoblotted with antibodies against PERK, IRE1α, phospho-eIf2α, and β-actin."}, "ATF4 [5]": {"tested_on": "ATF4", "assay": "ATF4 protein synthesis, [35S]methionine/cysteine pulse and immunoprecipitation", "format": "cell-based", "settings": "±100 ng/ml visfatin 24 h, then 5 μg/ml tunicamycin 5 h, 15 min pulse", "procedure": "as §1"}, "insulin receptor": {"tested_on": "insulin receptor", "assay": "CHOP immunoblot in macrophages from insulin receptor deficient and wild type mice", "format": "cell-based", "settings": "IR−/− vs wt macrophages, ±100 ng/ml visfatin 24 h, then 5 μg/ml tunicamycin 5 h", "excerpt": "FIG. 4. […] Whole cell lysates were immunoblotted for CHOP and β-actin."}, "[6]": {"tested_on": "atherosclerotic plaque formation", "assay": "Atherosclerotic plaque formation in susceptible mice on high cholesterol diet", "format": "in vivo", "settings": "vs diluent alone, mice with reduced ApoE1 expression", "excerpt": "Recombinant visfatin polypeptides will be injected into mice susceptible to atherosclerotic plaque formation. In accordance with this prophetic example, the genome of these mice can comprise a transgenic modification wherein ApoE1 gene expression is reduced to levels that promote atherosclerosis. The mice will be continuously fed a high cholesterol diet to promote the formation of atherosclerotic lesions. One group of mice will be administered a pharmaceutically effective amount of visfatin polypeptide in a suitable diluent and another group of mice will be administered diluent alone and the incidence of atherosclerotic plaque formation will be compared between the two groups. The amount of visfatin polypeptide, the length of administration and the frequency of administration are variables that can readily be determine by an individual skilled in the art."}, "[7]": {"tested_on": "macrophages in atherosclerotic plaques", "assay": "Macrophage death in atherosclerotic plaques of susceptible mice", "format": "in vivo", "settings": "vs diluent alone; mice with reduced ApoE1 expression, high cholesterol diet", "excerpt": "Recombinant visfatin polypeptides will be injected into mice susceptible to atherosclerotic plaque formation. In accordance with this prophetic example, the genome of these mice can comprise a transgenic modification wherein ApoE1 gene expression is reduced to levels that promote atherosclerosis. The mice will be continuously fed a high cholesterol diet to promote the formation of atherosclerotic lesions. One group of mice will be administered a pharmaceutically effective amount of visfatin polypeptide in a suitable diluent and another group of mice will be administered diluent alone and the amount of macrophage death in atherosclerotic plaques will be compared between the two groups. The amount of visfatin polypeptide, the length of administration and the frequency of administration are variables that can readily be determine by an individual skilled in the art."}, "macrophages": {"tested_on": "macrophages", "assay": "ER stress-mediated macrophage apoptosis, Alexa-488 annexin V staining", "format": "cell-based", "settings": "pre-incubated with visfatin 24 h (FIG. 1A prints 1100 ng/ml, FIG. 1D ±100 ng/ml), then acetyl-LDL + 58035 (FC) 20 h or tunicamycin + fucoidan 24 h", "procedure": "FIG. 1. […] FIG. 1A. Macrophages were pre-incubated 1100 ng/ml visfatin (vis) for 24 h and then incubated with 50 μg/ml acetyl-LDL+10 μg/ml 58035 (FC) for 20 h. Apoptosis was assayed by Alexa-488 annexin V staining (green). One representative image per condition was shown. FIG. 1B. The percentage of apoptosis was quantified (mean±SEM, n=8). FIG. 1C. Macrophages incubated in medium (con) or with visfatin (vis) for 24 h. Whole cell lysates were immunoblotted for the insulin receptor β (IRβ), SR-A, CD36 and β-actin. FIG. 1D. Macrophages were pre-incubated ±100 ng/ml visfatin (vis) for 24 h and then incubated with 5 μg/ml tunicamycin +25 μg/ml fucoidan (TN/F) for 24 h. Apoptosis was assayed and quantified as described in FIG. 1A and FIG. 1B."}}}
{"molecule": "B1", "values": [{"measurement": "incidence of the ER stress related disease", "setting": "[1]", "result": "lower incidence of the ER stress related disease"}, {"measurement": "acute UPR induction in macrophages of the mouse peritoneal cavity", "setting": "[2]; listed as Recombinant visfatin", "result": "suppresses the acute UPR induction of macrophages in mouse peritoneal cavity"}, {"measurement": "acute UPR induction in macrophages of the mouse peritoneal cavity", "setting": "[2]; listed as recombinant visfatin", "result": "suppress acute UPR induction in macrophages of the mouse peritoneal cavity"}, {"measurement": "mRNA level of ATF4", "setting": "ATF4 [3]", "result": "intact"}, {"measurement": "distal UPR effectors / distal UPR activation (CHOP, ATF3, XBP-1, ATF4)", "setting": "[4]", "result": "directly targets distal UPR effectors"}, {"measurement": "distal UPR effectors / distal UPR activation (CHOP, ATF3, XBP-1, ATF4)", "setting": "[4]; listed as Visfatin", "result": "suppresses the distal UPR activation"}, {"measurement": "upstream UPR activators (PERK, IRE1α, phospho-eIf2α)", "setting": "[4]; ±100 ng/ml visfatin 24 h, then 5 μg/ml tunicamycin 5 h, nuclei-free cell extracts", "result": "without inhibiting upstream UPR activators"}, {"measurement": "translation of ATF4 / ATF4 protein synthesis", "setting": "ATF4 [5]", "result": "halted"}, {"measurement": "translation of ATF4 / ATF4 protein synthesis", "setting": "ATF4 [5]; listed as Visfatin", "result": "suppresses ATF4 protein synthesis"}, {"measurement": "UPR-suppressing effect, dependence on the insulin receptor", "setting": "insulin receptor", "result": "independent of the insulin receptor"}, {"measurement": "incidence of atherosclerotic plaque formation", "setting": "[6]", "result": "lower incidence of atherosclerotic plaque formation"}, {"measurement": "amount of macrophage death in atherosclerotic plaques", "setting": "[7]", "result": "lower amount of cell death"}, {"measurement": "ER-stress mediated apoptosis of macrophages", "setting": "macrophages", "result": "protects macrophages from ER-stress mediated apoptosis"}, {"measurement": "ER-stress mediated apoptosis of macrophages", "setting": "macrophages; listed as Visfatin", "result": "protects macrophages from ER stress-mediated apoptosis"}]}
